{"source": "patent US20240093191A1", "about": "“COMPOSITIONS AND METHODS FOR TREATING DISEASE ASSOCIATED WITH DUX4 OVEREXPRESSION” (RESEARCH INSTITUTE AT NATIONWIDE CHILDREN'S HOSPITAL, priority 2021, published 2024)", "key": {"mir-675": {"tested_on": "mir-675", "conditions": "published gene expression studies; cited from earlier work"}, "mi405 mature sequence": {"tested_on": "mi405 mature sequence", "assay": "QPCR of mature mi405 (standard TaqMan cDNA synthesis) in HEK293 cells", "type": "cell-based, human", "conditions": "24 h after transfection; for reduction of mature mi405 sequence expression relative to U6.mi405: normalized to RPL13A", "procedure": "TaqMan Gene Expression Assay. QRT-PCR was carried out to quantify the expression of pri-mir-675, mir-675-5p and mi405 using TaqMan probes (ThermoFisher Scientific). Experiments were started by eliminating genomic DNA from the RNA preparations, and then cDNA was generated using the High-Capacity cDNA Reverse Transcription Kit (Applied Biosystems) following manufacturer's instructions. Within the same cDNA reaction, 1×RT random hexamer primers were used to generate the cDNA for RPL13A, used as a reference gene, and for pri-mir-675. To generate the cDNA for mir-675, the RT mir-675 reverse primer provided by ThermoFisher Scientific was used. For mi405, the mi405 qPCR protocol was done as it was previously described [Wallace et al., Mol. Ther. Methods Clin. Dev. 8: 121-30 (2018)]. To quantify mir-675 and mi405 levels, RNA was extracted using the total RNA protocol for the mirVana miRNA Isolation Kit (Ambion) from HEK293 cells. cDNA was generated using the High-Capacity cDNA Reverse Transcription Kit (Applied Biosystems) using a mix of random hexamer primers and specific reverse primer for pri-mir-675 and mir-675-5p. For mi405, 200 nM of the stem-loop forming primer (5′-[…]-3′) (SEQ ID NO: 144) was also used for the RT step. A custom TaqMan assay (Applied Biosystems) including 1.5 μM of Forward primer (5′-[…]-3′) (SEQ ID NO: 145), 0.7 μM of Reverse primer (5′-GTGCAGGGTCCGAGGT-3′) (SEQ ID NO: 146), and 0.2 μM of mi405 probe (5′-6FAM-ATACGACGTCCAGGAT-3′) (SEQ ID NO: 147) was then run using the CFX Connect Real Time system apparatus (Bio-Rad). RPL13A (Mm02526700_g1; Applied Biosystems) served as the reference gene. The TaqMan gene expression assay consisted of using the TaqMan Gene Expression Master mix and TaqMan probes purchased from ThermoFisher Scientific. 1× of probe was mixed with 1× of the TaqMan Gene Expression Master mix (ThermoFisher Scientific), and with 20 ng of cDNA. The mir-675- and mi405-specific primers and probes were designed to quantify only the mir-675-5p and mi405 mature sequence (see TaqMan Gene Expression Master mix protocol).\nApart from the effect on the inhibition efficiency of mi405, the effect of the flanking sequences on the expression of the miRNA also was tested. Therefore, the expression of the processed mature mi405 sequences was quantified using the standard and advanced TaqMan cDNA synthesis reaction. In the former reaction, a reverse primer detects the mature mi405 sequence following a stem-loop primer-based small RNA detection principle (ThermoFisher Scientific) (Jung et al., RNA (2013) 19: 1-10). The amplification and quantification steps were then performed using a standard TaqMan probe specific to mi405 that base pairs at the junction between the mi405 mature sequence and the reverse primer sequence (FIG. 6A). […] In the TaqMan advanced cDNA synthesis reaction, the mature sequence is extended through ligation of an adaptor sequence at the 5′ end and through the enzymatic addition of a polyA tail at the 3′ end of the mature mi405 sequence. The amplification and quantification steps were then performed using a TaqMan advanced probe specific to mi405 that normally base pairs with the 3′ end of the mature miRNA and with part of the adaptor sequence. Here, an additional TaqMan advanced probe (embedded probe) that only base pairs with the mature sequence of mi405 (FIG. 6B) was used. As a result, following TaqMan advanced cDNA synthesis reaction, droplet digital PCR (ddPCR) was performed to quantify mi405, mi405F, mi405B, mi405C, mi405G and mi405H expression levels. For this, TaqMan advanced embedded and overlapped mi405 probes (FIG. 6B) were used."}, "[1]": {"tested_on": "DUX4 ORF (RenLuc-DUX4 ORF)", "assay": "Dual-luciferase assay, RenLuc-DUX4 ORF reporter co-transfected with miDUX4 plasmids in HEK293 cells", "type": "cell-based, human", "conditions": "DUX4:mi405 molar ratio 2 to 1; HEK293; 24 h; normalized to U6.miGFP", "procedure": "Dual Luciferase Assay. (See also FIGS. 1A, 3A-B, 4A-B, 5B, and 16B-C.) This assay was performed as previously described by Wallace et al. (Mol. Ther. Methods Clin. Dev. 8: 121-30 (2018)) and following the dual-luciferase reporter assay system (Promega) protocol with some modifications. All plasmid constructs had the psiCheck2 dual luciferase reporter plasmid (Promega) as backbone that contains separate Renilla and Firefly luciferase genes, where the former contains the various target sequences used in the experiments of the disclosure, and the latter serves as a transfection normalizer (control). All DUX4 and control sequences were cloned downstream of the Renilla luciferase stop codon, serving as a 3′UTR. HEK293 cells were pre-plated 24h before transfection. Cells were then co-transfected with the luciferase DUX4 reporter and individual microRNA expression plasmids in an increasing luciferase DUX4 reporter:miRNA molar ratio using Lipofectamine 2000 (Invitrogen). Luciferase activity was measured 24h or 48h after transfection. DUX4 gene silencing was determined as previously described [Wallace et al., Mol. Ther. Methods Clin. Dev. 8: 121-30 (2018)]. Triplicate data were averaged per experiment, and individual experiments were performed 3 times. Results were reported as the average ratio of Renilla to Firefly luciferase activity±SEM for all combined experiments.\nAccordingly, two new mi405 constructs, i.e., mi405F and mi405NF, were designed. […] To assess the inhibition efficiency of the three mi405 constructs, a dual-luciferase assay and western blot analysis, similar to what was described for mir-675, were carried out. In the dual-luciferase assay, U6.mi405, U6.mi405F, or U6.mi405NF was co-transfected into HEK293 cells along with the RenLuc-DUX4 ORF (a construct expressing the open reading frame of DUX4 as a 3′UTR sequence of Renilla Luciferase). 24 h after transfection, U6.mi405, U6.mi405F, and U6.mi405NF reduced the relative Renilla luciferase activity by 85±1%, 89±1%, and 66±1% (P<0.0001, ANOVA, N=3), respectively, when tested against the RenLuc-DUX4 ORF construct."}}, "data": [{"molecule": "bleomycin", "values": [{"measurement": "mir-675 expression", "setting": "mir-675", "result": "upregulated mir-675 expression"}]}, {"molecule": "estrogen", "values": [{"measurement": "mir-675 expression", "setting": "mir-675", "result": "mir-675 was induced"}]}, {"molecule": "U6.mi405A: mi405 construct with altered flanking sequences (nucleic acid) DNA: ACGCCGCCATCTCTAGGCCCGCGCCGGCCCCCTCGCACAGACTTGTGGGAGAAGCTCGGCTACTCCCCTGCCCCGGTTAATTTGCATATAATATTTCCTAGTAACTATAGAGGCTTAATGTGCGATAAAAGACAGATAATCTGTTCTTTTTAATACTAGCTACATTTTACATGATAGGCTTGGATTTCTATAAGAGATACAAATACTAAATTATTATTTTAAAAAACAGCACAAAAGGAAACTCACCCTAACTGTAAAGTAATTGTGTGTTTTGAGACTATAAATATCCCTTGGAGAAAAGCCTTGTTTGACCGTTTAAACTCGAGTGAGCGATCCAGGATTCAGATCTGGTTTCTGTAAAGCCACAGATGGGAAACCAGATCTGAATCCTGGACTGCCTACTAGAGCGGCCGCCACTTTTTT", "values": [{"measurement": "levels of mature mi405 sequence compared to U6.mi405", "setting": "mi405 mature sequence", "result": "greater or higher with the difference not being statistically significant"}, {"measurement": "reduction of Renilla luciferase activity", "setting": "[1]", "result": "72±1", "unit": "%"}]}, {"molecule": "U6.mi405D: mi405 construct with altered flanking sequences (nucleic acid) DNA: ACGCCGCCATCTCTAGGCCCGCGCCGGCCCCCTCGCACAGACTTGTGGGAGAAGCTCGGCTACTCCCCTGCCCCGGTTAATTTGCATATAATATTTCCTAGTAACTATAGAGGCTTAATGTGCGATAAAAGACAGATAATCTGTTCTTTTTAATACTAGCTACATTTTACATGATAGGCTTGGATTTCTATAAGAGATACAAATACTAAATTATTATTTTAAAAAACAGCACAAAAGGAAACTCACCCTAACTGTAAAGTAATTGTGTGTTTTGAGACTATAAATATCCCTTGGAGAAAAGCCTTGTTTGACTCGAGTGAGCGATCCAGGATTCAGATCTGGTTTCTGTAAAGCCACAGATGGGAAACCAGATCTGAATCCTGGACTGCCTACTAGAGCGGCCGCCACTTTTTT", "values": [{"measurement": "levels of mature mi405 sequence compared to U6.mi405", "setting": "mi405 mature sequence", "result": "greater or higher with the difference not being statistically significant"}, {"measurement": "reduction of Renilla luciferase activity", "setting": "[1]", "result": "71±1", "unit": "%"}]}, {"molecule": "U6.mi405E: mi405 construct with altered flanking sequences (nucleic acid) DNA: ACGCCGCCATCTCTAGGCCCGCGCCGGCCCCCTCGCACAGACTTGTGGGAGAAGCTCGGCTACTCCCCTGCCCCGGTTAATTTGCATATAATATTTCCTAGTAACTATAGAGGCTTAATGTGCGATAAAAGACAGATAATCTGTTCTTTTTAATACTAGCTACATTTTACATGATAGGCTTGGATTTCTATAAGAGATACAAATACTAAATTATTATTTTAAAAAACAGCACAAAAGGAAACTCACCCTAACTGTAAAGTAATTGTGTGTTTTGAGACTATAAATATCCCTTGGAGAAAAGCCTTGTTTGACTCGAGTGAGCGATCCAGGATTCAGATCTGGTTTCTGTAAAGCCACAGATGGGAAACCAGATCTGAATCCTGGACTGCCTACTAGAGCGCACGCCAGTTTTTT", "values": [{"measurement": "levels of mature mi405 sequence compared to U6.mi405", "setting": "mi405 mature sequence", "result": "greater or higher with the difference not being statistically significant"}, {"measurement": "reduction of Renilla luciferase activity", "setting": "[1]", "result": "73±1", "unit": "%"}]}, {"molecule": "U6.mi405C: mi405 construct with altered flanking sequences (nucleic acid) DNA: ACGCCGCCATCTCTAGGCCCGCGCCGGCCCCCTCGCACAGACTTGTGGGAGAAGCTCGGCTACTCCCCTGCCCCGGTTAATTTGCATATAATATTTCCTAGTAACTATAGAGGCTTAATGTGCGATAAAAGACAGATAATCTGTTCTTTTTAATACTAGCTACATTTTACATGATAGGCTTGGATTTCTATAAGAGATACAAATACTAAATTATTATTTTAAAAAACAGCACAAAAGGAAACTCACCCTAACTGTAAAGTAATTGTGTGTTTTGAGACTATAAATATCCCTTGGAGAAAAGCCTTGTTTGCTCGAGTGAGCGATCCAGGATTCAGATCTGGTTTCTGTAAAGCCACAGATGGGAAACCAGATCTGAATCCTGGACTGCCTACTAGAGCGGCCGCCACTTTTTT", "values": [{"measurement": "reduction of mature mi405 sequence expression relative to U6.mi405", "setting": "mi405 mature sequence", "result": "63±27", "unit": "%"}, {"measurement": "reduction of Renilla luciferase activity", "setting": "[1]", "result": "64±1", "unit": "%"}]}, {"molecule": "U6.mi405B: mi405 construct with altered flanking sequences (nucleic acid) DNA: ACGCCGCCATCTCTAGGCCCGCGCCGGCCCCCTCGCACAGACTTGTGGGAGAAGCTCGGCTACTCCCCTGCCCCGGTTAATTTGCATATAATATTTCCTAGTAACTATAGAGGCTTAATGTGCGATAAAAGACAGATAATCTGTTCTTTTTAATACTAGCTACATTTTACATGATAGGCTTGGATTTCTATAAGAGATACAAATACTAAATTATTATTTTAAAAAACAGCACAAAAGGAAACTCACCCTAACTGTAAAGTAATTGTGTGTTTTGAGACTATAAATATCCCTTGGAGAAAAGCCTTGTTTGACCGTTTAAACTCGAGTGAGCGATCCAGGATTCAGATCTGGTTTCTGTAAAGCCACAGATGGGAAACCAGATCTGAATCCTGGACTGCCTACTAGATTTTTT", "values": [{"measurement": "reduction of mature mi405 sequence expression relative to U6.mi405", "setting": "mi405 mature sequence", "result": "71±9", "unit": "%"}, {"measurement": "reduction of Renilla luciferase activity", "setting": "[1]", "result": "25±3", "unit": "%"}]}]}
